# According to US5985273A, “Biological control of insects” (priority 1994, dated 1999):
# B1: Soybean Trypsin Inhibitor (protein, UniProt P01070 25-205, looked up)
# Trypsin inhibitor A: DFVLDNEGNPLENGGTYYILSDITAFGGIRAAPTGNERCPLTVVQSRNELDKGIGTIISSPYRIRFIAEGHPLSLKFDSFAVIMLCVGIPTEWSVVEDLPEGPAVKIGENKDAMDGWFRLERVSDDEFNNYKLVFCPQQAEDDKCGDIGISIDHDDGTRRLVVSKNKPLVVQFQKLDKESL
# How the values were obtained:
# Lucilia cuprina larvae = assay: Growth and survival of first instar sheep blowfly larvae on culture medium with inhibitor; type: in vivo; settings: for Effect on larval growth, summary in words: Example 1, Table 1.2; for % Growth Inhibition / Average Larval Weight: Table 2.2; for Average Larval Weight: control 10.26
# Teleogryllus commodus = assay: Mortality of black field cricket nymphs on treated cabbage leaf disks; type: in vivo; settings: after 7 days
# Method: (i) Stock solutions of inhibitors and control solutions were prepared as aqueous solutions or suspensions as outlined in Table 6.1.
# (ii) Mortality was assessed by commencing the study with 1st instar nymphs.
# (iii) Cabbage leaf disks (5×8 mm diameter disks/treatment) were smeared with 100 μl of inhibitor or control stock solutions and allowed to dry. Disks were placed singly in 40 mm petri dishes, together with a moist cotton wool pas as water supply and a piece of fluted plastic for shelter.
# (iv) Ten nymphs were placed on each disc and the dishes incubated at 25° C.
# (v) Mortality was assessed daily and any dead individuals removed.
# Tribolium castaneum = assay: Growth and survival of Tribolium castaneum in treated flour; type: in vivo; settings: Day 6; all dose levels
# Method: Insects were cultured in cleaned, ground and sieved wholemeal flour made from organic wheat. Inhibitors from bottles of pre-weighed material were dry-mixed with the flour and residual inhibitor rinsed from bottles with a small volume of water. Rinse water was added to the flour and the mixture re-ground. The impregnated flour was transferred to a 20 mL vial and mixed thoroughly by shaking and inverting. Adults of T. castaneum were allowed to oviposit on flour, eggs were sifted from the flour and transferred one by one with a single hair to microwell tubes containing a small amount of flour. Each level of treatment was performed in triplicated using 32 wells/replicate. Assays were performed in triplicated. Cultures were incubated at 30° C. and 55% R H. After 6 days each replicate of 32 wells was combined, the larvae counted and the numbers compared with numbers in the control (no inhibitor) treatment. Larvae were classified as "small" if appreciably smaller than reference larvae, or abnormal if unusual behaviour or formation were observed (eg. twisting or twisted larvae). Test inhibitors and dose rates were the same as those used in Example 4.
# O. surinamensis larvae = assay: Weight reduction of Oryzaephylus surinamensis larvae in treated flour; type: in vivo
# Method: Insects were cultured in cleaned, ground and sieved wholemeal flour made from organic wheat. Inhibitors from bottles of pre-weighed material were dry-mixed with the flour and residual inhibitor rinsed from bottles with a small volume of water. Rinse water was added to the flour and the mixture re-ground. The impregnated flour was transferred to a 20 mL vial and mixed thoroughly by shaking and inverting.
# Adults of T. castaneum were allowed to oviposit on flour, eggs were sifted from the flour and transferred one by one with a single hair to microwell tubes containing a small amount of flour. Each level of treatment was performed in triplicated using 32 wells/replicate. Assays were performed in triplicated. Cultures were incubated at 30° C. and 55% R H.
# The bioassay for this insect was outlined for T. castaneum, except incubations were conducted at 32.5° C. and 70% R H. After 8 days the insects were sieved from the flour and weighed.
# [1] = tested on: European corn borer (ECB) neonatal larvae; settings: 20 mg/ml of diet; laboratory assay; cited from earlier work
# [2] = tested on: Southern corn rootworm (SCR) neonatal larvae; settings: 20 mg/ml of diet; laboratory assay; cited from earlier work
# [3] = tested on: Heliothis punctigens larvae; assay: Growth and survival of cotton budworm larvae fed an artificial diet; type: in vivo; settings: 10 days; for % Alive: control 70.0
# Method: 1. The Haricot beans were cooked in a microwave for 40 minutes. 2. Agar was added to the hot water and stirred on a hot plate until almost boiling. 3. The haricot beans, agar mix, yeast and wheat germ was blended in an electric mixer for 3 minutes. 4. When the temperature has dropped to 60°C., the acids were added and mixed with the media. […] Inhibitor solutions or an equal volume of water were placed into sterilized glass tubes at designated concentrations. The artificial media was added to each tube (1.5 ml) using a sterile 10 ml syringe. First instar Heliothis punctigens larvae (1 larvae per tube) were added to the glass tubes and the tubes were capped. The tubes were incubated for 10 days at 25° C. The larvae were killed by placing the glass tubes at -70° C. for 24 hours, and then individually weighed. Percentage inhibition was calculated by comparison to control larvae.
# Ctenocephalides felis = assay: Development of cat flea eggs in dried blood diets; type: in vivo; settings: Day 16
# Method: Blood was collected from the jugular vein of a five year old merino sheep that had not been treated with an ectoparasitic agent for 18 months. The blood was collected into a 100 ml plastic bottle containing 0.8 ml of heparin and was maintained at 4° C. Inhibitors were pre-weighed into sterile 5 ml plastic vials and 4.5 ml of blood added. The samples were mixed, placed at -70° C. for 24 hours, then freeze-dried. The freeze-dried samples were sieved through a stainless steel 63 micron sieve, and placed into sterile 5 ml plastic vials (0.15 g/per tube). Four flea eggs were placed into each vial, and a sheet of tissue paper fastened by an elastic band was fitted to the top of each vial. The vials were incubated at 25° C. and 70-80% R H for 6 days. Vermiculite was then added to each vial to provide a supporting medium for the fleas to pupate and the tubes incubated at 25° C. and 70-80% R H, for a further 10 days. Ten control vials and three vials of each treatment were tested.
# At the conclusion of the incubation period the vials were placed at -20° C. for 24 hours to kill the fleas. The number of eggs hatched and the life-cycle state was recorded.
# L. cuprina eggs = assay: Egg hatch of L. cuprina on liver in vitro; type: in vivo, Lucilia cuprina; settings: 0.17 mM; 24 hours at 35° C.; control 71
# Method: L. cuprina eggs were placed on pieces of liver (0.9 g) which were then placed in individual wells of a 24-well tissue culture plate. Phosphate buffered saline (PBS, 0.1 ml) containing inhibitors at set concentrations were added to each well with 30 freshly laid and sterilised eggs of L. cuprina. The culture plate was then maintained in a sterile environment at 35° C. for 24 hours, after which time the percentage hatch was assessed.
# [4] = tested on: Bovicola ovis (Hartley strain); assay: Survival of sheep lice on inhibitor treated wool; type: in vivo; settings: of 10 lice, 24 Hours at 35° C.
# [5] = tested on: Colorado potato beetle larvae; settings: fed on potato leaves; cited from earlier work
molecule,measurement,setting,value
"c1cnc2c(c1)ccc1cccnc12 [1,10-phenanthroline]","Effect on larval growth, summary in words",Lucilia cuprina larvae,effective growth inhibitors
same,Larval survival,"Lucilia cuprina larvae; first instar larvae, tested at 1, 2.5, 5 mM",All larvae died
same,Mortality (class),Teleogryllus commodus; 5-20 mM,Medium (medium 21-40%)
same,Larval size classification,Tribolium castaneum,normal
same,inhibition at 5000 µM,"O. surinamensis larvae; 192 h, 5 mM, 8 days, relative to untreated larvae, read-out: Percentage Growth Inhibition",100%
same,inhibition at 10000 µM,"O. surinamensis larvae; 192 h, 10 mM, 8 days, relative to untreated larvae, read-out: Percentage Growth Inhibition",63%
same,inhibition at 20000 µM,"O. surinamensis larvae; 192 h, 20 mM, 8 days, relative to untreated larvae, read-out: Percentage Growth Inhibition",95%
same,"Growth inhibition, summary in words",O. surinamensis larvae; text summary of Table 9.1,highly effective
aprotinin,Neonatal larvae killed,[1],100%
same,Neonatal larvae killed,[2],60%
CCCCC[C@H](CC(=O)NO)C(=O)N[C@H](C(=O)N1CCC[C@H]1CO)C(C)C [Actinonin],"Effect on larval growth, summary in words",Lucilia cuprina larvae,effective growth inhibitors
same,inhibition at 2500 µM,"Lucilia cuprina larvae; Lucilia cuprina, first instar larvae, 2.5 mM",83%
same,inhibition at 10000 µM,"Lucilia cuprina larvae; Lucilia cuprina, first instar larvae, 10 mM",95%
same,% Alive,[3]; 2.5 mM,33.3%
same,% Alive,[3]; 5.0 mM,0.00%
same,inhibition at 2500 µM,"[3]; Heliothis, 240 h, 2.5 mM, read-out: % Growth Inhibition",97.5%
same,inhibition at 5000 µM,"[3]; Heliothis, 240 h, 5.0 mM, read-out: % Growth Inhibition",100%
same,Percentage of Fleas Progressing Through to Pupation,Ctenocephalides felis; 1.40 mg in 4.5 ml of blood,0%
same,Percentage of Fleas Progressing Through to Pupation,Ctenocephalides felis; 2.80 mg in 4.5 ml of blood,16.8%
same,Mortality (class),Teleogryllus commodus; 5 mM,"None (none/low, 10-20% mortality)"
same,Larval size classification,Tribolium castaneum,small
B1,% Growth Inhibition,Lucilia cuprina larvae; 0.0425 mM,-22.5%
same,Average Larval Weight,Lucilia cuprina larvae; 0.0425 mM,12.57 10^-4 g
same,% Growth Inhibition,Lucilia cuprina larvae; 0.085 mM,28.5%
same,Average Larval Weight,Lucilia cuprina larvae; 0.085 mM,7.34 10^-4 g
same,% Growth Inhibition,Lucilia cuprina larvae; 0.170 mM,45.1%
same,Average Larval Weight,Lucilia cuprina larvae; 0.170 mM,5.63 10^-4 g
same,% Growth Inhibition,Lucilia cuprina larvae; 0.340 mM,69.3%
same,Average Larval Weight,Lucilia cuprina larvae; 0.340 mM,3.15 10^-4 g
same,% Growth Inhibition,Lucilia cuprina larvae; 0.680 mM,70.6%
same,Average Larval Weight,Lucilia cuprina larvae; 0.680 mM,3.02 10^-4 g
same,Growth Inhibition,"Lucilia cuprina larvae; first instar larvae, 0.17 mM",76%
same,Growth Inhibition,"Lucilia cuprina larvae; first instar larvae, 0.40 mM",64%
same,% Hatch,L. cuprina eggs,17%
same,Percentage of Fleas Progressing Through to Pupation,Ctenocephalides felis; 5.0 mg in 4.5 ml of blood,0%
same,Percentage of Fleas Progressing Through to Pupation,Ctenocephalides felis; 10.0 mg in 4.5 ml of blood,0%
same,Mortality (class),Teleogryllus commodus; 0.17-0.68 mM,"None (none/low, 10-20% mortality)"
same,Number of Living Lice,"[4]; Adult, 0.17 mM",4
same,Number of Living Lice,"[4]; Adult, 0.34 mM",0
same,Number of Living Lice,"[4]; Adult, 0.68 mM",0
same,Number of Living Lice,"[4]; instar 1, 0.17 mM",1
same,Number of Living Lice,"[4]; instar 1, 0.34 mM",1
same,Number of Living Lice,"[4]; instar 1, 0.68 mM",0
same,Number of Living Lice,"[4]; instar 2, 0.17 mM",2
same,Number of Living Lice,"[4]; instar 2, 0.34 mM",0
same,Number of Living Lice,"[4]; instar 2, 0.68 mM",0
same,Number of Living Lice,"[4]; instar 3, 0.17 mM",2
same,Number of Living Lice,"[4]; instar 3, 0.34 mM",4
same,Number of Living Lice,"[4]; instar 3, 0.68 mM",0
same,Percentage Growth Inhibition,"O. surinamensis larvae; 0.17 mM, 8 days, relative to untreated larvae",12%
same,Percentage Growth Inhibition,"O. surinamensis larvae; 0.34 mM, 8 days, relative to untreated larvae",30%
same,Percentage Growth Inhibition,"O. surinamensis larvae; 0.68 mM, 8 days, relative to untreated larvae",46%
same,Growth retardation,[5],ineffective
